# Assay: label from the status in PepcDB records
row,Sequence,protein production
1,NNINVITDQMGNLDIKSNDNINQNTQNSNVASDLNLLTQNKYLENILMMNTYGVNYDHLFLPQNVAYLAAQQLSNNIMNNRNQINAAYTSQQYPNQSIPIKNIYDQSHLKYQQNSSSWRPPLNNGNIYDGVKSNPMGLHILQNGIDLYTNVDSNSVTSAINFDKYDSIPVSVTGPDYSATNVIENFDELKLDPTIRNNILLASYQRPTPIQKNAIPAILEHRDIMACAQTGSGKTAAFLIPIINHLVCQDLNQQRYSKTAYPKCLILAPTRELAIQILSESQKFSLNTPLRSCVVYGGADTHSQIREVQMGCHLLVATPGRLVDFIEKNKISLEFCKYIVLDEADRMLDMGFEPQIRKIIEESNMPSGINRQTLMFSATFPKEIQKLAADFLYNYIFMTVGRVGSTSDSIKQEIIYMTDVEKLNYLKNIFNTTAPNTLILIFVETKKGADSLARFLLSKGYPVSSIHGDRSQVEREAALSMFRNGQCPILVATAVAARGLDIPNVKHVINYDLPSDIEEYVHRIGRTGRLGNHGRATSFYVDKNNNIAIDLVDLLKEANQIVPQWLSALADELKRNSTMGSNNKRHNQRRYKNGNFGGRDYRQGPSNVNMNSGVNPDYFISGSVAPRHAKLNNGNYFPRSNELHDQHQKQNNNNNQVISNTFHTGISASHLIPGYATFNRQQAPLHFIPHQTNNTQFLSSSGQMALYNRMQNSGHMAPNQRFPNEPIHHQQEQLPITYNFSKNLPYLGQSYSGHNNNNNNNNNTSKINDSDSCYFGNKTPR,not failed
2,NNNSKINLFCVPSAGSSASIFSAWDKTSAENLKVIALEYPGHGRKIQQSLSHDPDFLAHQFSLEILAYGNTPYVLFGHSVGASLIWKIEEKLKLLHADHNLILKIVSARPSPLFQNLIHNYSHLTDEQMIKELRLYNNFPDEILNNASALNFFLPIIKNDFILSDNMLKKPIFKSSVPLMSVYGEADPYIKNHNIMESWSTYTNKWLGAHQFSGDHFYFLDTTILQKMLHLIQEKIY,failed
3,NNVIGALCVFQDISELVGIKELNERFQKILETSHDLICFIDENRKISYINPTYEKCLNIKSEDVLGKDLMKISPD,failed
4,NPDYVEVDRILEVAHTKDAETGEEVTHYLVKWCSLPYEESTWELEEDVDPAKVKEFESLQV,not failed
5,NSAAIQEMNREVEAAAKRTSPVFLTGEAGSPFETVARYFHKNGTPWVSPARVEYLIDMPMELLQKAEGGVLYVGDIAQYSRNIQTGITFIIGKAERCRVRVIASCSYAAGSDGISCEEKLAGLFSESVVRIPPLS,failed
6,NSDVPENTHLVSKEVQAAFNAKYPQAKDVEWELKGDYAVADFYWDGGEHSAWFNPLSAAWYMTETDVRYENLPEPVLAAHKAGKYADWRVDDVDKLTREGMETLYVIEVEKGESELDLFYSSTGILVKTVVDTGHEEDYDDYLPQPDANGIIAIVKQKYPNATIVEIEREKGLQEVTILDENKEKEVYFNERNEWMGTSWDVQVANLPEAVKKSVMEKYSDYVIDDADYVVTPDNEWYILDLENKQIDKELKVKVDKDGVWL,not failed
7,NTAPSLTVPECAICLQTCVHPVSLPCKHVFCYLCVKGASWLGKRCALCRQEIPEDFLD,not failed
8,NVGVFVLMHGDSTASSMLKTAQELLGTSIGTAMNMPLTMEVQTMYEQLRNQVITQKESLNNGILLLTDMGSLNSFGNMLFEETGIRTKAITMTSTMIVLEAIRMASVGRSLEDIYQNIQLSFESVVREQFRSSLQK,not failed
9,NVRVITDENWRELLEGDWMIEFYAPWCPACQNLQPEWESFAEWGEDLEVNIAKVDVTEQPGLSGRFIINALPTIYHCKDGEFRRYQGPRTKKDFINFISDKEWKSIEPVSSWF,not failed
10,PATPKKIKKEKKVPKLPRKDYWQAAMVIIISSIVLIASLFMISPLSRQKEITVSGNKNAIESQLIEELGIKKSDYLTTLLFQANRFERNLKSKDKWVKEAKLVYHFPNHFTLRVKEYRIIAYRQTDKGYVPILENGTRVDTVNASELPGSFVTINLDQEKEVRELVQKLAKLDKSLVGSIKVISSVNSSSTKDLLLLEMKDNNSVRVPLSEIDTKLPYYSKIKKNLTDGSIVDMEVGIYSTTADIEASIAEHKTTATTESSENS,failed
11,PCHHRITLDEFYQLFTNNKNIHLIDVRSTKEHQIQNIGGIVLPLDELPQRLHELNPNRLIILYCQSGTRSKMALDILLKAGFASVKYIENGLKGVTDNYNKDMPQ,failed
12,PEAERSTISLTRLHATIQNAPGVLGLVCTIIGEAGGNIVNLRMHHRQSDFFDTDIDVEVRDAKHLTNIQAALRACPSVETVDRTR,failed
13,PEKLPYLVELSPDGSDSRDKPKLYRLQLSVTEVGTEKFDDNSIQLFGPGIQPHHCDLTNMDGVVTVTPRSMDAETYVDGQRISETTMLQSGMRLQFGTSHVFKFVDP,not failed
